# Where no end group is shown, it is not given here.
# T1: leptin receptor (ObR) (UniProt P48357 22-1165, limits assumed)
# T1 sequence (looked up): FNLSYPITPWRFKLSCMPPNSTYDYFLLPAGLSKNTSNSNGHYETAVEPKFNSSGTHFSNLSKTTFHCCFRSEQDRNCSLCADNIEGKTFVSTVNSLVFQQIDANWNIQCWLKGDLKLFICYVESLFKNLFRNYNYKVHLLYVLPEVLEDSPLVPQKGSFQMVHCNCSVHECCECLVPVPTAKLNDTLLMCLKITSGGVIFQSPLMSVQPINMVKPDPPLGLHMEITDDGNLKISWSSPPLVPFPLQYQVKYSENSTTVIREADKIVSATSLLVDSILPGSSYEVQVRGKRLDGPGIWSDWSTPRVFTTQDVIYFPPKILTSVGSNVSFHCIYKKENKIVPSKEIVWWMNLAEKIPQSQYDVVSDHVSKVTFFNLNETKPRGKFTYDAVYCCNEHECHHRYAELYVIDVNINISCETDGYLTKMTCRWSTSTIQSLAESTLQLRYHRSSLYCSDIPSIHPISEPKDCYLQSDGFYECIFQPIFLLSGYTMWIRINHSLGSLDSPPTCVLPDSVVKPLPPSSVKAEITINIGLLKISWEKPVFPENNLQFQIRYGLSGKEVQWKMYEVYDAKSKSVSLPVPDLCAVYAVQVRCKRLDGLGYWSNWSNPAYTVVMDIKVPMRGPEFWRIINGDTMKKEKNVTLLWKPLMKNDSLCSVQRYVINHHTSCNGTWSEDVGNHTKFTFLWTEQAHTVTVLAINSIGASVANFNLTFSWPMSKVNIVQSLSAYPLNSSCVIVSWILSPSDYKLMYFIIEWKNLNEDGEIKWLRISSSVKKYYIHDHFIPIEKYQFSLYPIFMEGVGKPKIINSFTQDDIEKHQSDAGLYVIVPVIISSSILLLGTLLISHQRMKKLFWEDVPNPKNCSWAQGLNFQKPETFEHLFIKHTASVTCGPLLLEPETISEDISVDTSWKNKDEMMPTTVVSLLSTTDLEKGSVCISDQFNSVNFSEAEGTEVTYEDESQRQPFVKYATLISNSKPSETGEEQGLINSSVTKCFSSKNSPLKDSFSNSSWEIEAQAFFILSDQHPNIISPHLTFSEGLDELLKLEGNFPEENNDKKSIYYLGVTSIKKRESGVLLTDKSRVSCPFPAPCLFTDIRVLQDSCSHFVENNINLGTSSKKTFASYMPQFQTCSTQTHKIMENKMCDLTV
# How the values were obtained:
# leptin receptor (ObR) [1] = biological target: T1, leptin receptor (ObR); test: cell-based or functional assay
# leptin receptor (ObR) [2] = biological target: T1, leptin receptor (ObR); test: cell-based or functional assay; remark: listed apart in the source
"IC50 (half maximal inhibitory concentration), inhibition of leptin-induced cell growth (leptin receptor (ObR) [1])","IC50, inhibition of leptin-induced growth of MCF-7 cells (leptin receptor (ObR) [2])",Binder
32 nM,32 nM,"NVIQISNDLENLRDLLHV-NH2 [Truncated LPA-2 (72-89), D79 (original amino acid)]"
33 nM,33 nM,SRNVIQISNDLENLRDLLHVLAFSKS-NH2 [Full-length LPA-2 (70-95)]
25.7 nM,25.7 nM,"VQDDTKTLIKTIVTRINDI-NH2 [Truncated LPA-1 (6-24), T10 (original amino acid)]"

# — US20120245104A1, “NOVEL RETRO-INVERSO LEPTIN PEPTIDE ANTAGONISTS” (priority 2011, published 2012)
